The values that follow are results of earlier work, collected in patent US10190113B2, “Methods and compositions for segregating target nucleic acid from mixed nucleic acid samples” (FLIR DETECTION, INC., priority 2011, dated 2019).

“And” between values parts separate entries of the source, which are not always exact repeats. Equal values may be shown once.

B1: BamHI T153I: BamHI restriction enzyme with mutation T153I (listed twice) (protein, UniProt P23940 1-213, looked up, variant T153I)
Type II restriction enzyme …: MEVEKEFITDEAKELLSKDKLIQQAYNEVKTSICSPIWPATSKTFTINNTEKNCNGVVPIKELCYTLLEDTYNWYREKPLDILKLEKKKGGPIDVYKEFIENSELKRVGMEFETGNISSAHRSMNKLLLGLKHGEIDLAIILMPIKQLAYYLIDRVTNFEELEPYFELTEGQPFIFIGFNAEAYNSNVPLIPKGSDGMSKRSIKKWKDKVENK
B2: EcoRV Y72N: EcoRV restriction enzyme with mutation Y72N (protein, UniProt P04390 2-245, looked up, variant Y72N)
Type II restriction enzyme …: SLRSDLINALYDENQKYDVCGIISAEGKIYPLGSDTKVLSTIFELFSRPIINKIAEKHGYIVEEPKQQNHNPDFTLYKPSEPNKKIAIDIKTTYTNKENEKIKFTLGGYTSFIRNNTKNIVYPFDQYIAHWIIGYVYTRVATRKSSLKTYNINELNEIPKPYKGVKVFLQDKWVIAGDLAGSGNTTNIGSIHAHYKDFVEGKGIFDSEDEFLDYWRNYERTSQLRNDKYNNISEYRNWIYRGRK
B3: EcoRV E45A: EcoRV restriction enzyme with mutation E45A (protein, UniProt P04390 2-245, looked up, variant E45A)
Type II restriction enzyme …: SLRSDLINALYDENQKYDVCGIISAEGKIYPLGSDTKVLSTIFALFSRPIINKIAEKHGYIVEEPKQQNHYPDFTLYKPSEPNKKIAIDIKTTYTNKENEKIKFTLGGYTSFIRNNTKNIVYPFDQYIAHWIIGYVYTRVATRKSSLKTYNINELNEIPKPYKGVKVFLQDKWVIAGDLAGSGNTTNIGSIHAHYKDFVEGKGIFDSEDEFLDYWRNYERTSQLRNDKYNNISEYRNWIYRGRK
B4: EcoRV I91L: EcoRV restriction enzyme with mutation I91L (protein, UniProt P04390 2-245, looked up, variant I91L)
Type II restriction enzyme …: SLRSDLINALYDENQKYDVCGIISAEGKIYPLGSDTKVLSTIFELFSRPIINKIAEKHGYIVEEPKQQNHYPDFTLYKPSEPNKKIAIDLKTTYTNKENEKIKFTLGGYTSFIRNNTKNIVYPFDQYIAHWIIGYVYTRVATRKSSLKTYNINELNEIPKPYKGVKVFLQDKWVIAGDLAGSGNTTNIGSIHAHYKDFVEGKGIFDSEDEFLDYWRNYERTSQLRNDKYNNISEYRNWIYRGRK
B5: EcoRV D74E: EcoRV restriction enzyme with mutation D74E (protein, UniProt P04390 2-245, looked up, variant D74E)
Type II restriction enzyme …: SLRSDLINALYDENQKYDVCGIISAEGKIYPLGSDTKVLSTIFELFSRPIINKIAEKHGYIVEEPKQQNHYPEFTLYKPSEPNKKIAIDIKTTYTNKENEKIKFTLGGYTSFIRNNTKNIVYPFDQYIAHWIIGYVYTRVATRKSSLKTYNINELNEIPKPYKGVKVFLQDKWVIAGDLAGSGNTTNIGSIHAHYKDFVEGKGIFDSEDEFLDYWRNYERTSQLRNDKYNNISEYRNWIYRGRK
B6: EcoRV P73A: EcoRV restriction enzyme with mutation P73A (two citations) (protein, UniProt P04390 2-245, looked up, variant P73A)
Type II restriction enzyme …: SLRSDLINALYDENQKYDVCGIISAEGKIYPLGSDTKVLSTIFELFSRPIINKIAEKHGYIVEEPKQQNHYADFTLYKPSEPNKKIAIDIKTTYTNKENEKIKFTLGGYTSFIRNNTKNIVYPFDQYIAHWIIGYVYTRVATRKSSLKTYNINELNEIPKPYKGVKVFLQDKWVIAGDLAGSGNTTNIGSIHAHYKDFVEGKGIFDSEDEFLDYWRNYERTSQLRNDKYNNISEYRNWIYRGRK
B7: EcoRV D74A: EcoRV restriction enzyme with mutation D74A (protein, UniProt P04390 2-245, looked up, variant D74A)
Type II restriction enzyme …: SLRSDLINALYDENQKYDVCGIISAEGKIYPLGSDTKVLSTIFELFSRPIINKIAEKHGYIVEEPKQQNHYPAFTLYKPSEPNKKIAIDIKTTYTNKENEKIKFTLGGYTSFIRNNTKNIVYPFDQYIAHWIIGYVYTRVATRKSSLKTYNINELNEIPKPYKGVKVFLQDKWVIAGDLAGSGNTTNIGSIHAHYKDFVEGKGIFDSEDEFLDYWRNYERTSQLRNDKYNNISEYRNWIYRGRK
B8: EcoRV E45Q: EcoRV restriction enzyme with mutation E45Q (protein, UniProt P04390 2-245, looked up, variant E45Q)
Type II restriction enzyme …: SLRSDLINALYDENQKYDVCGIISAEGKIYPLGSDTKVLSTIFQLFSRPIINKIAEKHGYIVEEPKQQNHYPDFTLYKPSEPNKKIAIDIKTTYTNKENEKIKFTLGGYTSFIRNNTKNIVYPFDQYIAHWIIGYVYTRVATRKSSLKTYNINELNEIPKPYKGVKVFLQDKWVIAGDLAGSGNTTNIGSIHAHYKDFVEGKGIFDSEDEFLDYWRNYERTSQLRNDKYNNISEYRNWIYRGRK
B9: EcoRV E45D: EcoRV restriction enzyme with mutation E45D (protein, UniProt P04390 2-245, looked up, variant E45D)
Type II restriction enzyme …: SLRSDLINALYDENQKYDVCGIISAEGKIYPLGSDTKVLSTIFDLFSRPIINKIAEKHGYIVEEPKQQNHYPDFTLYKPSEPNKKIAIDIKTTYTNKENEKIKFTLGGYTSFIRNNTKNIVYPFDQYIAHWIIGYVYTRVATRKSSLKTYNINELNEIPKPYKGVKVFLQDKWVIAGDLAGSGNTTNIGSIHAHYKDFVEGKGIFDSEDEFLDYWRNYERTSQLRNDKYNNISEYRNWIYRGRK
B10: EcoRV D90N: EcoRV restriction enzyme with mutation D90N (two citations) (protein, UniProt P04390 2-245, looked up, variant D90N)
Type II restriction enzyme …: SLRSDLINALYDENQKYDVCGIISAEGKIYPLGSDTKVLSTIFELFSRPIINKIAEKHGYIVEEPKQQNHYPDFTLYKPSEPNKKIAINIKTTYTNKENEKIKFTLGGYTSFIRNNTKNIVYPFDQYIAHWIIGYVYTRVATRKSSLKTYNINELNEIPKPYKGVKVFLQDKWVIAGDLAGSGNTTNIGSIHAHYKDFVEGKGIFDSEDEFLDYWRNYERTSQLRNDKYNNISEYRNWIYRGRK
B11: EcoRV K92R: EcoRV restriction enzyme with mutation K92R (protein, UniProt P04390 2-245, looked up, variant K92R)
Type II restriction enzyme …: SLRSDLINALYDENQKYDVCGIISAEGKIYPLGSDTKVLSTIFELFSRPIINKIAEKHGYIVEEPKQQNHYPDFTLYKPSEPNKKIAIDIRTTYTNKENEKIKFTLGGYTSFIRNNTKNIVYPFDQYIAHWIIGYVYTRVATRKSSLKTYNINELNEIPKPYKGVKVFLQDKWVIAGDLAGSGNTTNIGSIHAHYKDFVEGKGIFDSEDEFLDYWRNYERTSQLRNDKYNNISEYRNWIYRGRK
B12: EcoRV P73T: EcoRV restriction enzyme with mutation P73T (protein, UniProt P04390 2-245, looked up, variant P73T)
Type II restriction enzyme …: SLRSDLINALYDENQKYDVCGIISAEGKIYPLGSDTKVLSTIFELFSRPIINKIAEKHGYIVEEPKQQNHYTDFTLYKPSEPNKKIAIDIKTTYTNKENEKIKFTLGGYTSFIRNNTKNIVYPFDQYIAHWIIGYVYTRVATRKSSLKTYNINELNEIPKPYKGVKVFLQDKWVIAGDLAGSGNTTNIGSIHAHYKDFVEGKGIFDSEDEFLDYWRNYERTSQLRNDKYNNISEYRNWIYRGRK

This data set deals with nucleic acid recognition or cleavage site. Particulars: mutant restriction enzyme relative to wild type; cited from earlier work.
For B1, the “% of WT cleavage activity” value was 0.1% and 1%.
Take B2: the “% of WT cleavage activity” value is <0.1%.
With B3, the “% of WT cleavage activity” value is on record as <0.1%.
B4: the “% of WT cleavage activity” value is given as <0.1%.
As to B5, the “% of WT cleavage activity” value was 0%.
With B6, the “% of WT cleavage activity” value is <0.1% and 1%.
With B7, the “% of WT cleavage activity” value is on record as 0%.
Take B8: the “% of WT cleavage activity” value is on record as <0.3%.
For B9, the “% of WT cleavage activity” value is given as <0.3%.
Turning to B10, the “% of WT cleavage activity” value is 0%.
Regarding B11, the “% of WT cleavage activity” value is 0%.
Regarding B12, the “% of WT cleavage activity” value is reported as 0%.
